3 variants from IntAct's records for PubMed 24788516 can be followed below.

B1: KAT8 regulatory NSL complex subunit 1 (Homo sapiens), Q7Z3B3 (parent)
chain: MAAMAPALTDAAAEAHHIRFKLAPPSSTLSPGSAENNGNANILIAANGTKRKAIAAEDPSLDFRNNPTKEDLGKLQPLVASYLCSDVTSVPSKESLKLQGVFSKQTVLKSHPLLSQSYELRAELLGRQPVLEFSLENLRTMNTSGQTALPQAPVNGLAKKLTKSSTHSDHDNSTSLNGGKRALTSSALHGGEMGGSESGDLKGGMTNCTLPHRSLDVEHTTLYSNNSTANKSSVNSMEQPALQGSSRLSPGTDSSSNLGGVKLEGKKSPLSSILFSALDSDTRITALLRRQADIESRARRLQKRLQVVQAKQVERHIQHQLGGFLEKTLSKLPNLESLRPRSQLMLTRKAEAALRKAASETTTSEGLSNFLKSNSISEELERFTASGIANLRCSEQAFDSDVTDSSSGGESDIEEEELTRADPEQRHVPLRRRSEWKWAADRAAIVSRWNWLQAHVSDLEYRIRQQTDIYKQIRANKGLIVLGEVPPPEHTTDLFLPLSSEVKTDHGTDKLIESVSQPLENHGAPIIGHISESLSTKSCGALRPVNGVINTLQPVLADHIPGDSSDAEEQLHKKQRLNLVSSSSDGTCVAARTRPVLSCKKRRLVRPNSIVPLSKKVHRNSTIRPGCDVNPSCALCGSGSINTMPPEIHYEAPLLERLSQLDSCVHPVLAFPDDVPTSLHFQSMLKSQWQNKPFDKIKPPKKLSLKHRAPMPGSLPDSARKDRHKLVSSFLTTAKLSHHQTRPDRTHRQHLDDVGAVPMVERVTAPKAERLLNPPPPVHDPNHSKMRLRDHSSERSEVLKHHTDMSSSSYLAATHHPPHSPLVRQLSTSSDSPAPASSSSQVTASTSQQPVRRRRGESSFDINNIVIPMSVAATTRVEKLQYKEILTPSWREVDLQSLKGSPDEENEEIEDLSDAAFAALHAKCEEMERARWLWTTSVPPQRRGSRSYRSSDGRTTPQLGSANPSTPQPASPDVSSSHSLSEYSHGQSPRSPISPELHSAPLTPVARDTPRHLASEDTRCSTPELGLDEQSVQPWERRTFPLAHSPQAECEDQLDAQERAARCTRRTSGSKTGRETEAAPTSPPIVPLKSRHLVAAATAQRPTHR
B2: KAT8 regulatory NSL complex subunit 2 (Homo sapiens), Q9H9L4 (parent)
chain: MNRIRIHVLPTNRGRITPVPRSQEPLSCAFTHRPCSHPRLEGQEFCIKHILEDKNAPFKQCSYISTKNGKRCPNAAPKPEKKDGVSFCAEHVRRNALALHAQMKKTNPGPVGETLLCQLSSYAKTELGSQTPESSRSEASRILDEDSWSDGEQEPITVDQTWRGDPDSEADSIDSDQEDPLKHAGVYTAEEVALIMREKLIRLQSLYIDQFKRLQHLLKEKKRRYLHNRKVEHEALGSSLLTGPEGLLAKERENLKRLKCLRRYRQRYGVEALLHRQLKERRMLATDGAAQQAHTTRSSQRCLAFVDDVRCSNQSLPMTRHCLTHICQDTNQVLFKCCQGSEEVPCNKPVPVSLSEDPCCPLHFQLPPQMYKPEQVLSVPDDLEAGPMDLYLSAAELQPTESLPLEFSDDLDVVGDGMQCPPSPLLFDPSLTLEDHLVKEIAEDPVDILGQMQMAGDGCRSQGSRNSEKASAPLSQSGLATANGKPEPTSIS

The first test covers variants of B1. Particulars: with wdr5_human WDR5, P61964.
Regarding R592A, the “effect of a mutation on the interaction” value was “disrupting interaction”.

A further test covers variants of B2. Particulars: with wdr5_human WDR5, P61964.
As to V413D, the “effect of a mutation on the interaction” value is “disrupting interaction”.

The next test covers variants of B2. As to conditions: with wdr5_human WDR5, P61964. This is another data set of the same source.
Turning to L411E;V413D, the “effect of a mutation on the interaction” value is “disrupting interaction”.
